Measured values: publication PMC6254361, “The properties of Msh2–Msh6 ATP binding mutants suggest a signal amplification mechanism in DNA mismatch repair” (The Journal of Biological Chemistry, 2018)

Tests used:
Msh2–Msh6(K988A) = target: T1, Msh2–Msh6(K988A) (S. cerevisiae, UniProt P25847 1-964; Q03834 1-1242, K988A); assay: SPR; Biacore T100; 236-bp GT mispair DNA held by biotin-streptavidin, other end blocked by lacO-LacI; 20 nM Msh2–Msh6, 250 μM ATP, 30 nM LacI for 100 s, then the same plus 40 nM Mlh1–Pms1 for 300 s; recruitment read as the increase in RU over steady-state Msh2–Msh6; 25 mM Tris pH 8, 4 mM MgCl2, 110 mM NaCl, 0.01% Igepal, 2 mM DTT, 2% glycerol; 10 °C, 20 μl/min; conditions: both partners purified
T1 construct: Msh2, S. cerevisiae, wild type; Msh6, S. cerevisiae, Walker A lysine mutant; also called Walker A Lys mutant Msh2–Msh6 complex
T1 sequence (P25847 whole entry, chain 1 of 2): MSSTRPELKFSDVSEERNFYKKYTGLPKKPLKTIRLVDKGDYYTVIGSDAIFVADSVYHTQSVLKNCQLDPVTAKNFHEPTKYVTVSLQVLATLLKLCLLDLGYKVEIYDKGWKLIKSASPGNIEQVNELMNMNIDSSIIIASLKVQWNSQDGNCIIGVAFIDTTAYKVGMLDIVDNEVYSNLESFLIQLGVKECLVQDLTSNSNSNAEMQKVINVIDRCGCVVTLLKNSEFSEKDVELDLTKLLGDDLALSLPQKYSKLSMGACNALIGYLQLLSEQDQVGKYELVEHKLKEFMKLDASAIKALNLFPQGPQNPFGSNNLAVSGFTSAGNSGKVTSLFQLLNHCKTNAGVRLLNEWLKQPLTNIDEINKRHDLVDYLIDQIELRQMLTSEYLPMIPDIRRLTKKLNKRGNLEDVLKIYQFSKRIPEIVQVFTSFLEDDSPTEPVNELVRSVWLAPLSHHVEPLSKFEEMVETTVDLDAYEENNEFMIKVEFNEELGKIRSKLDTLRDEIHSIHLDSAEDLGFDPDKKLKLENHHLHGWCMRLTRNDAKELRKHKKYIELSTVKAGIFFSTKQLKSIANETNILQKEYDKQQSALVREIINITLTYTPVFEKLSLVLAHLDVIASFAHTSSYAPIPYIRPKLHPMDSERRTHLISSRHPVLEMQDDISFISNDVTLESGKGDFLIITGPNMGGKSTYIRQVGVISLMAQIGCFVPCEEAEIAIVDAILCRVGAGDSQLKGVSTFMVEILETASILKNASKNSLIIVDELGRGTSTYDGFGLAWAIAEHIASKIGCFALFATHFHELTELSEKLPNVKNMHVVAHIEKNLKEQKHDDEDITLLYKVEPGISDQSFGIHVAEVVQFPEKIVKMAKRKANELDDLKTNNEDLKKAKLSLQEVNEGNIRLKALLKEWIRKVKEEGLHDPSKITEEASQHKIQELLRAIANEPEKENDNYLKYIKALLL
T1 sequence (Q03834 whole entry K988A, chain 2 of 2): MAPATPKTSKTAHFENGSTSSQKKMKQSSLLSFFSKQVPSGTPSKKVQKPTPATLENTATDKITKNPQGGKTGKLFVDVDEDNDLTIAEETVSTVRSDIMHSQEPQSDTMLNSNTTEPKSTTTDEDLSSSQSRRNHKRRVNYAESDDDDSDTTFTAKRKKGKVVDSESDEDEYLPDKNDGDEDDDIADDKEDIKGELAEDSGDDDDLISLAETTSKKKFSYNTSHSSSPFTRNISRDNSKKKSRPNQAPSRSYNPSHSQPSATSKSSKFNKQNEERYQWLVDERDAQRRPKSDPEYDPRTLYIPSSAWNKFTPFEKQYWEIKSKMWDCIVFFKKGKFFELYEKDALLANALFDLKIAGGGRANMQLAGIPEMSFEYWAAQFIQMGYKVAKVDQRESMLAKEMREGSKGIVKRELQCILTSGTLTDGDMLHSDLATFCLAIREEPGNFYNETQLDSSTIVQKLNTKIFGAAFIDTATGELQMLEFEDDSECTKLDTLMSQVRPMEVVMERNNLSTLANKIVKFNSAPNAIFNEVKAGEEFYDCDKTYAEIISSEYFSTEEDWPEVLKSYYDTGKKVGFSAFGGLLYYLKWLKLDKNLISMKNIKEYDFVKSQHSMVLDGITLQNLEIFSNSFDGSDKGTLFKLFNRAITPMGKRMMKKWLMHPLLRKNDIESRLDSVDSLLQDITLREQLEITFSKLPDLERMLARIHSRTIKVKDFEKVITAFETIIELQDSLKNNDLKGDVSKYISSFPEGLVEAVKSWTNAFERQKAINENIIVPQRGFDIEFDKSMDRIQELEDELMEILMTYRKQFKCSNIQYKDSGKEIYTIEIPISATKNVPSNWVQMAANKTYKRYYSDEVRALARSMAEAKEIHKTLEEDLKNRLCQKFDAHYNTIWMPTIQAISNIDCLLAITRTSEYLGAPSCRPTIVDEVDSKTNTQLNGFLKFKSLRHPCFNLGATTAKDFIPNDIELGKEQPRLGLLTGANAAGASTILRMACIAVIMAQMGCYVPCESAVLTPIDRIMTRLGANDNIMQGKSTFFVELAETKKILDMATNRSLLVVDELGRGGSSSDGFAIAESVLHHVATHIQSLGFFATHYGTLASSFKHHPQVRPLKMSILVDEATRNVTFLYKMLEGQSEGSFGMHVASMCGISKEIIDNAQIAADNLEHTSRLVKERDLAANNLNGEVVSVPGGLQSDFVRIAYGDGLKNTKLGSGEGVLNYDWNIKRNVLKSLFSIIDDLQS

Msh2–Msh6(K988M) = target: T2, Msh2–Msh6(K988M) (S. cerevisiae, UniProt P25847 1-964; Q03834 1-1242, K988M); assay: as above; conditions: both partners purified
T2 construct: Msh2, S. cerevisiae, wild type; Msh6, S. cerevisiae, Walker A lysine mutant; also called Walker A Lys mutant Msh2–Msh6 complex; source: purified
T2 sequence (P25847 whole entry, chain 1 of 2): as the sequence (P25847 whole entry, chain 1 of 2) above
T2 sequence (Q03834 whole entry K988M, chain 2 of 2): as the sequence (Q03834 whole entry K988A, chain 2 of 2) above, with A988M counted along it

[1] = target: T3, S. cerevisiae Msh2–Msh6 (WT) (S. cerevisiae, UniProt P25847 1-964; Q03834 1-1242); assay: as above; conditions: both partners purified
T3 construct: Msh2, S. cerevisiae, wild type; Msh6, S. cerevisiae, wild type; Heterodimer; also called WT Msh2–Msh6
T3 sequence (P25847 whole entry, chain 1 of 2): as the sequence (P25847 whole entry, chain 1 of 2) above
T3 sequence (Q03834 whole entry, chain 2 of 2): as the sequence (Q03834 whole entry K988A, chain 2 of 2) above, with A988K counted along it

Msh2–Msh6(K988R) = target: T4, Msh2–Msh6(K988R) (S. cerevisiae, UniProt P25847 1-964; Q03834 1-1242, K988R); assay: as above; conditions: both partners purified
T4 construct: Msh2, S. cerevisiae, wild type; Msh6, S. cerevisiae, Walker A lysine mutant; also called Walker A Lys mutant Msh2–Msh6 complex
T4 sequence (P25847 whole entry, chain 1 of 2): as the sequence (P25847 whole entry, chain 1 of 2) above
T4 sequence (Q03834 whole entry K988R, chain 2 of 2): as the sequence (Q03834 whole entry K988A, chain 2 of 2) above, with A988R counted along it

Msh2(K694M)–Msh6 = Msh2(K694M)–Msh6 (S. cerevisiae, UniProt P25847 1-964; Q03834 1-1242, K694M); assay: cell-based or functional assay
Sequence of Msh2(K694M)–Msh6 (P25847 whole entry K694M, chain 1 of 2): as the sequence (P25847 whole entry, chain 1 of 2) above, with K694M counted along it
Sequence of Msh2(K694M)–Msh6 (Q03834 whole entry, chain 2 of 2): as the sequence (Q03834 whole entry K988A, chain 2 of 2) above, with A988K counted along it

Msh2(K694A)–Msh6 = Msh2(K694A)–Msh6 (S. cerevisiae, UniProt P25847 1-964; Q03834 1-1242, K694A); assay: cell-based or functional assay
Sequence of Msh2(K694A)–Msh6 (P25847 whole entry K694A, chain 1 of 2): as the sequence (P25847 whole entry, chain 1 of 2) above, with K694A counted along it
Sequence of Msh2(K694A)–Msh6 (Q03834 whole entry, chain 2 of 2): as the sequence (Q03834 whole entry K988A, chain 2 of 2) above, with A988K counted along it

Msh2(K694R)–Msh6 = Msh2(K694R)–Msh6 (S. cerevisiae, UniProt P25847 1-964; Q03834 1-1242, K694R); assay: cell-based or functional assay
Sequence of Msh2(K694R)–Msh6 (P25847 whole entry K694R, chain 1 of 2): as the sequence (P25847 whole entry, chain 1 of 2) above, with K694R counted along it
Sequence of Msh2(K694R)–Msh6 (Q03834 whole entry, chain 2 of 2): as the sequence (Q03834 whole entry K988A, chain 2 of 2) above, with A988K counted along it

B1: S. cerevisiae Mlh1–Pms1 (complex)
chain 1: MSLRIKALDASVVNKIAAGEIIISPVNALKEMMENSIDANATMIDILVKEGGIKVLQITDNGSGINKADLPILCERFTTSKLQKFEDLSQIQTYGFRGEALASISHVARVTVTTKVKEDRCAWRVSYAEGKMLESPKPVAGKDGTTILVEDLFFNIPSRLRALRSHNDEYSKILDVVGRYAIHSKDIGFSCKKFGDSNYSLSVKPSYTVQDRIRTVFNKSVASNLITFHISKVEDLNLESVDGKVCNLNFISKKSISPIFFINNRLVTCDLLRRALNSVYSNYLPKGNRPFIYLGIVIDPAAVDVNVHPTKREVRFLSQDEIIEKIANQLHAELSAIDTSRTFKASSISTNKPESLIPFNDTIESDRNRKSLRQAQVVENSYTTANSQLRKAKRQENKLVRIDASQAKITSFLSSSQQFNFEGSSTKRQLSEPKVTNVSHSQEAEKLTLNESEQPRDANTINDNDLKDQPKKKQKLGDYKVPSIADDEKNALPISKDGYIRVPKERVNVNLTSIKKLREKVDDSIHRELTDIFANLNYVGVVDEERRLAAIQHDLKLFLIDYGSVCYELFYQIGLTDFANFGKINLQSTNVSDDIVLYNLLSEFDELNDDASKEKIISKIWDMSSMLNEYYSIELVNDGLDNDLKSVKLKSLPLLLKGYIPSLVKLPFFIYRLGKEVDWEDEQECLDGILREIALLYIPDMVPKVDTSDASLSEDEKAQFINRKEHISSLLEHVLFPCIKRRFLAPRHILKDVVEIANLPDLYKVFERC
chain 2: MTQIHQINDIDVHRITSGQVITDLTTAVKELVDNSIDANANQIEIIFKDYGLESIECSDNGDGIDPSNYEFLALKHYTSKIAKFQDVAKVQTLGFRGEALSSLCGIAKLSVITTTSPPKADKLEYDMVGHITSKTTTSRNKGTTVLVSQLFHNLPVRQKEFSKTFKRQFTKCLTVIQGYAIINAAIKFSVWNITPKGKKNLILSTMRNSSMRKNISSVFGAGGMRGLEEVDLVLDLNPFKNRMLGKYTDDPDFLDLDYKIRVKGYISQNSFGCGRNSKDRQFIYVNKRPVEYSTLLKCCNEVYKTFNNVQFPAVFLNLELPMSLIDVNVTPDKRVILLHNERAVIDIFKTTLSDYYNRQELALPKRMCSQSEQQAQKRLKTEVFDDRSTTHESDNENYHTARSESNQSNHAHFNSTTGVIDKSNGTELTSVMDGNYTNVTDVIGSECEVSVDSSVVLDEGNSSTPTKKLPSIKTDSQNLSDLNLNNFSNPEFQNITSPDKARSLEKVVEEPVYFDIDGEKFQEKAVLSQADGLVFVDNECHEHTNDCCHQERRGSTDTEQDDEADSIYAEIEPVEINVRTPLKNSRKSISKDNYRSLSDGLTHRKFEDEILEYNLSTKNFKEISKNGKQMSSIISKRKSEAQENIIKNKDELEDFEQGEKYLTLTVSKNDFKKMEVVGQFNLGFIIVTRKVDNKYDLFIVDQHASDEKYNFETLQAVTVFKSQKLIIPQPVELSVIDELVVLDNLPVFEKNGFKLKIDEEEEFGSRVKLLSLPTSKQTLFDLGDFNELIHLIKEDGGLRRDNIRCSKIRSMFAMRACRSSIMIGKPLNKKTMTRVVHNLSELDKPWNCPHGRPTMRHLMELRDWSSFSKDYEI
notes: Mlh1, S. cerevisiae; Pms1, S. cerevisiae; also called MMR endonuclease Mlh1–Pms1
Q: Which results are given for B1?
A: binding result (Msh2–Msh6(K988A)): binds; binding result (Msh2–Msh6(K988M)): binds; stoichiometry N [1]: 1.07 Mlh1–Pms1 per Msh2–Msh6; binding result (Msh2–Msh6(K988R)): binds; Mlh1–Pms1 endonuclease nicking of a 3′ nicked mispaired DNA promoted by the Msh2–Msh6 variant (with PCNA, RFC-Δ1N), 0.1 and 2.5 mM ATP, relative to WT Msh2–Msh6 (Msh2(K694M)–Msh6): ~50 % of the nicking of WT Msh2–Msh6; Mlh1–Pms1 endonuclease nicking of a 3′ nicked mispaired DNA promoted by the Msh2–Msh6 variant (with PCNA, RFC-Δ1N), 0.1 and 2.5 mM ATP, relative to WT Msh2–Msh6 (Msh2(K694A)–Msh6): ~50 % of the nicking of WT Msh2–Msh6; Mlh1–Pms1 endonuclease nicking of a 3′ nicked mispaired DNA promoted by the Msh2–Msh6 variant (with PCNA, RFC-Δ1N), 0.1 and 2.5 mM ATP, relative to WT Msh2–Msh6 (Msh2(K694R)–Msh6): ~50 % of the nicking of WT Msh2–Msh6
